# Numbering of substitutions follows the chain as printed.
# B1: 515H7: murine anti-CXCR4 monoclonal antibody; light chain variable domain SEQ ID No. 7, heavy chain variable domain SEQ ID No. 8 (antibody, listed as Mus musculus, V domains shown)
# VH: EVNLVESGGGLVQPGGSLRLSCATSGFTFTDNYMSWVRQPPGKALEWLGFIRNKANGYTTDYSASVRGRFTISRDNSQSILYLQMNALRAEDSATYYCARDVGSNYFDYWGQGTTLTVSS
# VL: DIVMSQSPSSLAVSAGEKVTMSCKSSQSLFNSRTRKNYLAWYQQKPGQSPKLLIYWASARDSGVPARFTGSGSETYFTLTISRVQAEDLAVYYCMQSFNLRTFGGGTKLEIK
# B2: c515H7: chimeric antibody 515H7: murine variable domains fused to human Ckappa and IgG1/IgG2/IgG4 constant domains; isotype tested not stated (antibody, V domains shown)
# VH: B1 VH
# VL: B1 VL
# B3: 301aE5: murine anti-CXCR4 monoclonal antibody; light chain variable domain SEQ ID No. 34, heavy chain variable domain SEQ ID No. 35 (antibody, listed as Mus musculus, V domains shown)
# VH: QVQLKESGPGLVAPSQSLSITCTVSGFSLTDYGVYWVRQPPGKGLEWLGMIWGDGTTDYNSALKSRLSISKDNSKSQVFLKMNTLQTDDTARYYCARGRQFGFDYWGQGTTLTVSS
# VL: B1 VL with S22R, Y55F, A59I, D61E, A66D, E74G, Y76D, R83S, M95K, F98Y
# Molecular target: T1, CXCR4 homodimer (Homo sapiens, UniProt P61073)
# T1 construct: expressed in transfected cells; host or cells: HEK293, transient transfection
# T1 sequence (P61073 whole entry): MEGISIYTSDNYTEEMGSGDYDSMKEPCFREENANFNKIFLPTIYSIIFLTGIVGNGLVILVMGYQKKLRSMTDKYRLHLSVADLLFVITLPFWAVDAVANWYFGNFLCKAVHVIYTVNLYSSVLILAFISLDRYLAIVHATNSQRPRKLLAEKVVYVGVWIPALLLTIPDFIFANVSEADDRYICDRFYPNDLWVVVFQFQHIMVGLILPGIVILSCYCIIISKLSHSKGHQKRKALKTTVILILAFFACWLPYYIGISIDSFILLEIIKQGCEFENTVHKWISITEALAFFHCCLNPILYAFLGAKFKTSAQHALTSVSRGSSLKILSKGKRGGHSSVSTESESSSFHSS
# T1 sequence (P61073 whole entry): as above
# Assay: BRET on HEK293 cells expressing CXCR4/Rluc+CXCR4/YFP
# Type: cell-based
# Conditions: without SDF-1
# From the text: This functional assay allows to evaluate the conformational changes induced upon SDF-1 and/or 515H7 Mab binding to CXCR4 receptor at the level of CXCR4 homodimer.
# (§1) Expression vectors for the investigated interaction partners were constructed as fusion proteins with the corresponding dye (Renilla reniformis luciferase, Rluc and Yellow fluorescent protein, YFP) by applying conventional molecular biology techniques. Two days prior performing BRET experiments, HEK293 cells were transiently transfected with expression vectors coding for the corresponding BRET partners: [CXCR4/Rluc+CXCR4/YFP] to study CXCR4 homodimerization. The day after, cells were distributed in poly-lysine pre-coated white 96 MW plates in complete culture medium [DMEM supplemented with 10% FBS]. Cells were first cultivated at 37° C. with CO2 5% in order to allow cell attachment to the plate. Cells were then starved with 200 μl DMEM/well overnight Immediately prior to the BRET experiment, DMEM was removed and cells were quickly washed with PBS. Cells were then incubated in PBS in the presence or absence of antibody, 10 min at 37° C. prior to the addition of coelenterazine H 5 μM with or without SDF-1 300 nM in a final volume of 50 μl. After incubation for further 10 minutes at 37° C., light-emission acquisition at 485 nm and 530 nm was initiated using the Mithras LB940 multilabel reader (Berthold) (1 s/wavelength/well repeated 15 times at room temperature).
# Calculation of BRET ratio was performed as previously described (Angers et al., 2000): [(emission530 nm)−(emission485 nm)×Cf]/(emission485 nm), where Cf=(emission530 nm)/(emission485 nm) for cells expressing the Rluc fusion protein alone under the same experimental conditions. […] For sake of readability, results are expressed in mi11iBRET units (mBU); mBU corresponds to the BRET ratio multiplied by 1000.
# This functional assay allows to evaluate the conformational changes induced upon SDF-1 and/or c515H7 Mab binding to CXCR4 receptor at the level of CXCR4 homodimer.
# as §1, with “Cells were then incubated in PBS in the presence or absence of antibody, 10 min at 37° C. prior to the addition of coelenterazine H 5 μM with or without SDF-1 300 nM in a final volume of 50 μl.” left out
# Calculation of BRET ratio was performed as previously described (Angers et al., 2000): [(emission530 nm)−(emission485 nm)×Cf]/(emission485 nm), where Cf=(emission530 nm)/(emission485 nm) for cells expressing the Rluc fusion protein alone under the same experimental conditions. […] For sake of readability, results are expressed in milliBRET units (mBU); mBU corresponds to the BRET ratio multiplied by 1000. […]
row,Molecule,modulation of CXCR4/CXCR4 spatial proximity by the Mab itself
1,B1,able to modulate by themselves CXCR4/CXCR4 spatial proximity
2,B2,able to modulate by itself CXCR4/CXCR4 spatial proximity
3,B3,able to modulate by themselves CXCR4/CXCR4 spatial proximity

# Test system: HIV-1 X4 primary isolate KON
# Assay: Single cycle neutralization assay in human PBMC, isolate KON
# Type: cell-based
# Conditions: not given
# Experimental: This assay is performed in 36 h using primary isolates KON, MN and 92UG024 concentrated and diluted accordingly to allow the detection 2% infected CD4 T lymphocytes after 2 days of infection.
# Twenty-five microliters of various dilutions of Mabs 515H7, c515H7 and 301aE5 were incubated for 1 h at 37° C. with 25 μl of virus. Human PBMC (25 μl) at 20×10^6 cells/ml were added to the Mab/virus mixture in a 96-well plate (U-bottom, Costar 3599) and cultured for 36 h in RPMI 1640 10% FCS and 20 U/ml IL-2 (R&D Systems, Minneapolis, Minn.).
# After 2 days of culture, HIV-infected lymphocytes were detected by intracellular staining of viral p24 Ag. Cells were fixed and permeabilized using both Cytofix/Cytoperm and Perm/Wash kits (BD Biosciences) according to the manufacturer and stained with a fluorescent anti-p24 Mab (FITC- or PE-anti-p24, clone KC57; Beckman Coulter/Immunotech, Hialeah, Fla.) used at a 1/160 dilution in Perm/Wash solution added for 15 min at 4° C. After washing in PBS with 3% FBS, PBMC were diluted in 300 μl of PBS before flow cytometry analysis (LSRII; BD Biosciences) with DIVA software (BD Biosciences). The percentage of p24-positive cells in the different samples was determined by gating 20,000 events on a living cell population identified by forward- and side-scatter parameters. The living cell subsets were analyzed with the live/dead solution kit (Invitrogen). The p24 Ag-positive value was obtained after subtraction of background events in mock-infected cells.
# The percent of neutralization was defined as the reduction of p24-positive cells compared with control infected wells with no Mab. The neutralizing titer was defined as the concentration of antibody (interpolated between successive dilutions performed in triplicate) that allows a 90% decrease in the percentage of infected cells.
# This assay was performed in 36 h using primary isolate KON concentrated and diluted accordingly to allow the detection 2% infected CD4 T lymphocytes after 2 days of infection.
# […] Human PBMC (25 p.1) at 20×10^6 cells/ml were added to the Mab/virus mixture in a 96-well plate (U-bottom, Costar 3599) and cultured for 36 h in RPMI 1640 10% FCS and 20 U/ml IL-2 (R&D Systems, Minneapolis, Minn.).
# The percent of neutralization was defined as the reduction of p24-positive cells compared with control infected wells with no Mab. The neutralizing titer was defined as the concentration of antibody (interpolated between successive dilutions performed in triplicate) […].
row,Molecule,inhibition of HIV-1 X4 KON primary isolate replication in PBMC (in words)
1,B1,able to inhibit
2,B2,able to inhibit
3,B3,able to inhibit

# Same assay, conditions: IC for 90% inhibition, human PBMC
row,Molecule,KON % inhibition of infected cells 90
1,B1,15 µg/mL
2,B2,20 µg/mL
3,B3,>150 µg/mL

# From patent US9090686B2, “Antibodies for the treatment of HIV” (Pierre Fabre Medicament, priority 2009, dated 2015)
